We go through one molecule from patent publication US20250074973A1 (ANNEXON, published 2025).

The target of this assay is T1, human C1q (complement factor C1q, chains A, B and C) (Homo sapiens, UniProt P02745 23-245; P02746 28-253; P02747 29-245).
T1 construct: Endogenous C1q in serum and CSF of the treated human subjects
Kind of assay: in vivo target engagement (PK/PD) in serum and CSF of dosed HD patients.

T1 sequence (P02745 23-245 limits assumed, chain 1 of 3): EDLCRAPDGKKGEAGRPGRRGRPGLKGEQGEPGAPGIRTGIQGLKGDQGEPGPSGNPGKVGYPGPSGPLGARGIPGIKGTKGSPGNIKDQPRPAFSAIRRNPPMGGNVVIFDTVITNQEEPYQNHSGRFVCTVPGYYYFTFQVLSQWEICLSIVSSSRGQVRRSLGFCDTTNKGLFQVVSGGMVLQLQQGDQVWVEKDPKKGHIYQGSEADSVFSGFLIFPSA
T1 sequence (P02746 28-253 limits assumed, chain 2 of 3): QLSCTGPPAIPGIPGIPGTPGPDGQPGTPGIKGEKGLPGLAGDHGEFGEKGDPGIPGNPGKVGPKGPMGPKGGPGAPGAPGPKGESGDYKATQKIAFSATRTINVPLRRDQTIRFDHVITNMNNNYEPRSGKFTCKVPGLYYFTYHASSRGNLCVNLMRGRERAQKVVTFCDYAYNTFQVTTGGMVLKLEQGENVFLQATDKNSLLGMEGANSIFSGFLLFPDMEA
T1 sequence (P02747 29-245 limits assumed, chain 3 of 3): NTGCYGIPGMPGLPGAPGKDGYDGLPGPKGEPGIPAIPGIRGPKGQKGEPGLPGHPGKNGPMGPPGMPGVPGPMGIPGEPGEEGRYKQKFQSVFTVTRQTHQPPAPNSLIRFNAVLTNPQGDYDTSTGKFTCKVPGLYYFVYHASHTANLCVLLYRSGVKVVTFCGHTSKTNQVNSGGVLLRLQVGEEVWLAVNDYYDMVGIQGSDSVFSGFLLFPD

B1: full-length C1q antibody (heavy chain SEQ ID NO: 14; light chain SEQ ID NO: 40) (antibody, human IgG4 S228P, kappa)
heavy: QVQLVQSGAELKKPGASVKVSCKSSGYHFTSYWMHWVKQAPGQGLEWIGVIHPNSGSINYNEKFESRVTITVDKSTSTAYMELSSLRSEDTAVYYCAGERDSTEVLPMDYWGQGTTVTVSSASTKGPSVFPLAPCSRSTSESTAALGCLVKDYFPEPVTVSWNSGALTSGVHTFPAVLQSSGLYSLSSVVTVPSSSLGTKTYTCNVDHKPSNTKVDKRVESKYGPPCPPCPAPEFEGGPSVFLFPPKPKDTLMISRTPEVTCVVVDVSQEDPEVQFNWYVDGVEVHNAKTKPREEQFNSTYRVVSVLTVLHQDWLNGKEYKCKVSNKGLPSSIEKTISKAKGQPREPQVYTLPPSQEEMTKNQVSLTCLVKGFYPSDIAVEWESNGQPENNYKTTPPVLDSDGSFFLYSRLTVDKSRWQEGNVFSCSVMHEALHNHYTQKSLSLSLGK
light: DVQITQSPSSLSASLGERATINCRASKSINKYLAWYQQKPGKAPKLLIYSGSTLQSGIPARFSGSGSGTDFTLTISSLEPEDFAMYYCQQHNEYPLTFGQGTKLEIKRTVAAPSVFIFPPSDEQLKSGTASVVCLLNNFYPREAKVQWKVDNALQSGNSQESVTEQDSKDSTYSLSSTLTLSKADYEKHKVYACEVTHQGLSSPVTKSFNRGEC
notes: also called full-length anti-C1q antibody; anti-C1q antibody
Consider B1, for which the binding result was “binds”.
